Laboratory results published in patent US20240116985A1 (published 2024).
One block for each binder: values may come before it. Starred links: 1 amine or outer side, 2 acyl side, 3 side chain; linkers in the order of their positions; H or OH if unused. Positions of bridges follow the written chain, without caps; N, C: chain ends. Non-standard residues stand in square brackets, D forms with d. Primed or numbered codes have the meaning given here. PyrS2″ = (S)-3-amino-1-((pent-4-en-1-yloxy)carbonyl)pyrrolidine-3-carboxylic acid (stapling residue), C=CCCCOC(=O)N1CC[C@@](N[*:1])(C(=O)[*:2])C1; B5(16) = 2-amino-2-(pent-4-en-1-yl)hept-6-enoic acid = 2,2-bis(4-pentenyl)glycine (stitching residue), C=CCCCC(CCCC=C)(N[*:1])C(=O)[*:2]; B5(4) = 2,2-bis(4-pentenyl)glycine = 2-amino-2-(pent-4-en-1-yl)hept-6-enoic acid (stitching residue), C=CCCCC(CCCC=C)(N[*:1])C(=O)[*:2]; Phe(2-Cl) = N[C@@H](Cc1ccccc1Cl)C(=O)O; Bta = N[C@@H](Cc1csc2ccccc12)C(=O)O; Lys(iPr) = CC(C)NCCCC[C@H](N)C(=O)O; αAllylPro = C=CC[C@@]1(C(=O)O)CCCN1

How the values were obtained:
[1] = biological target: T1, full-length beta-Catenin (Uniprot ID P35222) (Homo sapiens (Human), UniProt P35222 2-781); assay: fluorescence polarization competition vs 5FAM-TCF4(10-53) on full-length beta-catenin
T1 construct: also called bCat; B-Catenin
T1 sequence: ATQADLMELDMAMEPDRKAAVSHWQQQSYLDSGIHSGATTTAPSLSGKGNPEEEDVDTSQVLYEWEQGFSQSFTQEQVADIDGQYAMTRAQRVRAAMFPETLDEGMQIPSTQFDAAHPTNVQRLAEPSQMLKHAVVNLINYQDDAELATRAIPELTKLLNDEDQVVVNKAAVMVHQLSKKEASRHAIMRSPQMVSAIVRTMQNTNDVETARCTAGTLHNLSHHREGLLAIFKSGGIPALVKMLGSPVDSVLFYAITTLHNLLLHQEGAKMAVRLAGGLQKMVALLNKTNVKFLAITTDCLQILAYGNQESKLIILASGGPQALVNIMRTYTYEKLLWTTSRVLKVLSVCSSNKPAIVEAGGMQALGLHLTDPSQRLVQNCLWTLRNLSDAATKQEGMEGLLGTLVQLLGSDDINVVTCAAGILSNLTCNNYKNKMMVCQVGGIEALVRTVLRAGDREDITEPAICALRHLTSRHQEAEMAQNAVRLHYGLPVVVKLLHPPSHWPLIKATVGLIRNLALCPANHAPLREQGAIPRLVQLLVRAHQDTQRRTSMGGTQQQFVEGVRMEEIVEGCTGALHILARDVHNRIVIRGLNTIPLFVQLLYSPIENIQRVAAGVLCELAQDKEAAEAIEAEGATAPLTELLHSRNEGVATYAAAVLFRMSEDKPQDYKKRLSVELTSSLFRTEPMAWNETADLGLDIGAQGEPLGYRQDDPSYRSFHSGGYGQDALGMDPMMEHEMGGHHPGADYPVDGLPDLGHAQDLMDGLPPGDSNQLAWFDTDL
Method in brief: (§1)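 Data fitted to 1:1 binding model with hill slope from duplicate reads taken after 60 minutes at 20° C. in the dark.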

Bcat-Halo = biological target: T2, Bcat-Halo (UniProt P35222 1-781, HaloTag NanoBRET 618 Ligand bound in the assay); assay: NanoBRET Abs IC50 in HEK293 cells; competitor TCF4-Luc on Bcat-Halo
T2 construct: Expressed by transfection in HEK293 cells; also called beta-catenin HaloTag NanoBRET construct; not shown: HaloTag
T2 sequence (looked up): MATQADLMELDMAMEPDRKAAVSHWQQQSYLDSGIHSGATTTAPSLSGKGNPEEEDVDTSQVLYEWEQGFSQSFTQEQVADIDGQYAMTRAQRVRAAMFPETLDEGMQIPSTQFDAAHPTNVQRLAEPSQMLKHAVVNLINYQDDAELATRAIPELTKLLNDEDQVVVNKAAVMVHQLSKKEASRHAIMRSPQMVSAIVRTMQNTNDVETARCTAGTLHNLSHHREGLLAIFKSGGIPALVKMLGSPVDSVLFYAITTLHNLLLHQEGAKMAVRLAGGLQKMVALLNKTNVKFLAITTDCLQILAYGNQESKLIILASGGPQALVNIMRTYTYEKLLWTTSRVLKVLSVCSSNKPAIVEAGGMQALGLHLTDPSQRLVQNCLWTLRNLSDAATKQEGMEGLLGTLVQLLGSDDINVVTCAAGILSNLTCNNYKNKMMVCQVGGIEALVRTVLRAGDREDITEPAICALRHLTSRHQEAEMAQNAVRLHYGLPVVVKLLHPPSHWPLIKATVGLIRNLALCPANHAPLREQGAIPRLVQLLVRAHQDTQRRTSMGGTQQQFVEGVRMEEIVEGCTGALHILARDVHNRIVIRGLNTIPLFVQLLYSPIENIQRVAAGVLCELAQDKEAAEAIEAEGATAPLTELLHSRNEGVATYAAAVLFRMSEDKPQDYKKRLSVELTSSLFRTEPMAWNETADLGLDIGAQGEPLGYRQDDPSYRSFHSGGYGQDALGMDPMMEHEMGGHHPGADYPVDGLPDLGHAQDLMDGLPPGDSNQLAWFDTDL

[2] = biological target: T3, full-length beta-Catenin (Uniprot ID P35222) (Homo sapiens (Human), UniProt P35222 1-781); assay: fluorescence polarization competition; full-length beta-catenin with 5FAM-TCF4(10-53) probe as competitor
T3 construct: The assay text says full-length; also called bCat; B-Catenin
T3 sequence: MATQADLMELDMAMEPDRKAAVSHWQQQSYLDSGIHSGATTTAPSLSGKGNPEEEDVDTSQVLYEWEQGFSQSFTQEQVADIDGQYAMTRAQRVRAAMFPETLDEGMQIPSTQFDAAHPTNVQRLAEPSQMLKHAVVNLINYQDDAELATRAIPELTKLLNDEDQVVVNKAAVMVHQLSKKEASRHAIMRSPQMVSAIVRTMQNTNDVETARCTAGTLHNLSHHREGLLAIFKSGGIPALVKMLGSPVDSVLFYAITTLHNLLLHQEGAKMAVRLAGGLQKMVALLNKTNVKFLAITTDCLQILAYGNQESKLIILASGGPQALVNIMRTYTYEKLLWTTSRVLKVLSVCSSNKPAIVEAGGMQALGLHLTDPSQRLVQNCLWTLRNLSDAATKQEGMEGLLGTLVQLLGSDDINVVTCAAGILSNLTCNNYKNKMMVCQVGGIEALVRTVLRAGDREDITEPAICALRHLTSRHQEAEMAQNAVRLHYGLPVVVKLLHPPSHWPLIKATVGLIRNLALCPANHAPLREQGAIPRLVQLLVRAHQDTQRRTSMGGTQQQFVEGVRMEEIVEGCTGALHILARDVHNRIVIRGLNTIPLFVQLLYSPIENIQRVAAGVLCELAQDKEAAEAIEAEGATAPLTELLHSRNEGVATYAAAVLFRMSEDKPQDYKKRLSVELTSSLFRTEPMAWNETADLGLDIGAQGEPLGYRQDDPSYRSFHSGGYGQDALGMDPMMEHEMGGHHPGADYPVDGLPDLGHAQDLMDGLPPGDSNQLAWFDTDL
Method in brief: as §1

[3] = biological target: T4, full-length beta-Catenin (Uniprot ID P35222) (Homo sapiens (Human), UniProt P35222 2-781); assay: fluorescence polarization competition; full-length beta-catenin, 5FAM-TCF4(10-53) probe as competitor
T4 construct: also called bCat; B-Catenin
T4 sequence: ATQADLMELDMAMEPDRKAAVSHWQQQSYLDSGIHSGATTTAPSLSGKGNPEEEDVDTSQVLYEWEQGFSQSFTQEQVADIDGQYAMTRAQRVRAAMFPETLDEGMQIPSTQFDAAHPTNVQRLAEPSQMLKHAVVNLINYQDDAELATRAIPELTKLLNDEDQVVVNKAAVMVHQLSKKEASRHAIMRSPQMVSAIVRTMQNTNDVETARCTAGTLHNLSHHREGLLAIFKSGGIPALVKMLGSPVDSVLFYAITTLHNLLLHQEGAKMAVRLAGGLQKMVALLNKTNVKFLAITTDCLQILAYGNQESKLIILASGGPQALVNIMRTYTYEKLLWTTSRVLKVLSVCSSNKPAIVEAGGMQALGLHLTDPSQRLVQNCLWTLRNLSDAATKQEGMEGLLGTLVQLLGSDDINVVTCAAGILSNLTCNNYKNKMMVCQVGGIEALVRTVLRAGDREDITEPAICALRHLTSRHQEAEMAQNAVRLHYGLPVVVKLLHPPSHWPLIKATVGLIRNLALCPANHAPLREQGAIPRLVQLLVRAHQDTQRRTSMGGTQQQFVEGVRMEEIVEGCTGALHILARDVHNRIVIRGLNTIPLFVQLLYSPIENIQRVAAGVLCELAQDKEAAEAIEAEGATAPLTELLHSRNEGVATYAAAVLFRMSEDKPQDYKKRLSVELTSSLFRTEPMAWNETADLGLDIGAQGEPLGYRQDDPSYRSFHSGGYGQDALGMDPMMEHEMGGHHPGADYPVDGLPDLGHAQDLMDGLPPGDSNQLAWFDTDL
Method: The plate was incubated protected from light for 60 minutes at 20° C. prior to read. Reads were performed on a CLARIOstar plate reader (BMG Labtech) in duplicate, and data were fitted to a 1:1 binding model with hill slope using an in-house script. All provided concentrations are final concentrations.

B1: I-1155 (peptide)
peptide: Ac-[αAllylPro]DF[B5(16)]DDLLFS[PyrS2″][Phe(2-Cl)][Bta]Q-NH2
modifications: staple 1-4, 4-11
notes: Stapled (stitched) peptide composition; olefin isomer not specified
IC50 [1]: 60 nM

B4: I-602 (peptide)
peptide: XDIXDEAAFQXFXQ
modifications: N-terminal 2PyPrpc cap; PL3 (pos 1), B5 (pos 4), S8 (pos 11) stapled (PL3-B5 and B5-S8); BztA (pos 13); C-terminal NH2
notes: Stapled peptide; also called 2PyPrpc-PL3-Asp-Ile-B5-Asp-Glu-Ala-Ala-Phe-Gln-S8-Phe-BztA-Gln-NH2
IC50 [2]: 3150 nM

B6: I-1580 (peptide)
peptide: Ac-[αAllylPro]NF[B5(4)]DT[Lys(iPr)]AFL[PyrS2″]F[Bta]Q-NH2
modifications: staple 1-4, 4-11
IC50 [3]: 1430 nM

More lines, now with the values ahead:

IC50 [1]: 45 nM
B2: I-1154 (peptide)
peptide: Ac-[αAllylPro]DF[B5(16)]DDALFS[PyrS2″][Phe(2-Cl)][Bta]Q-NH2
modifications: staple 1-4, 4-11
notes: as for B1

IC50 (Bcat-Halo): > 20000 nM
IC50 [1]: 12 nM
B3: I-1153 (peptide)
peptide: Ac-[αAllylPro]DF[B5(16)]DDLAFS[PyrS2″][Phe(2-Cl)][Bta]Q-NH2
modifications: staple 1-4, 4-11
notes: as for B1

IC50 (Bcat-Halo): 26100 nM
IC50 [1]: 14 nM
B5: I-1156 (peptide)
peptide: Ac-[αAllylPro]DF[B5(4)]DDLAFT[PyrS2″][Phe(2-Cl)][Bta]S-NH2
modifications: staple 1-4, 4-11
notes: as for B1

IC50 [3]: 3420 nM
B7: I-1583 (peptide)
peptide: Ac-[αAllylPro]NS[B5(4)]DT[Lys(iPr)]AFL[PyrS2″]F[Bta]Q-NH2
modifications: staple 1-4, 4-11
